The source of these data is patent US20170258948A1 (Bristol-Myers Squibb, published 2017).

B1: ATI-966 (designed binder)
chain: MGVSDVPRDLEVVAATPTSLLISWHRFSSIMAYYRITYGETGGNSPVQEFTVAGSVNTATISGLKPGVDYTITVYAVTIHNVSFPISINYRTEIDKPSQHHHHHH
notes: 10Fn3 Adnectin
B2: ATI-965 (designed binder)
chain: MGVSDVPRDLEVVAATPTSLLISWTAYDSVDKYYRITYGETGGNSPVQEFTVGPRHHTATISGLKPGVDYTITVYAVYHTEPGYHAHMPISINYRTEIDKPSQHHHHHH
notes: 10Fn3 Adnectin
B3: ATI-967 (designed binder)
chain: MGVSDVPRDLEVVAATPTSLLISWQGQLSPSFYYRITYGETGGNSPVQEFTVPVASGTATISGLKPGVDYTITVYAVTSHGIYFYAPISINYRTEIDKPSQHHHHHH
notes: 10Fn3 Adnectin; also called parent of ADX_5417_E01
B4: ATI-968 (designed binder)
chain: MGVSDVPRDLEVVAATPTSLLISWIAPFYNVIYYRITYGETGGNSPVQEFTVPGTGYTATISGLKPGVDYTITVYAVTDGASIASYAFPISINYRTEIDKPSQHHHHHH
notes: 10Fn3 Adnectin; also called ADX_1760_C01
B5: ATI-964 (designed binder)
chain: MGVSDVPRDLEVVAATPTSLLISWSYDGSIERYYRITYGETGGNSPVQEFTVPPDQKTATISGLKPGVDYTITVYAVRLEEAHYYRESPISINYRTEIDKPSQHHHHHH
notes: 10Fn3 Adnectin; also called parent of ADX_5322_A02
B6: ADX_5417_E01 (designed binder)
chain: MGVSDVPRDLEVVAATPTSLLISWRAQLSPSFYYRITYGETGGNSPVQEFTVPNDVMTATISGLKPGVDYTITVYAVTTHGVYFYSPISINYRTPCHHHHHH
B7: ADX_5322_A02 (designed binder)
chain: MGVSDVPRDLEVVAATPTSLLISWSYDGPIDRYYRITYGETGGNSPVQEFTVPPDQKTATISGLKPGVDYTITVYAVRLEEAHYNREFPISINYRTPCHHHHHH
B8: ^64Cu-E01-NODAGA (designed binder)
chain: GVSDVPRDLEVVAATPTSLLISWRAQLSPSFYYRITYGETGGNSPVQEFTVPNDVMTATISGLKPGVDYTITVYAVTTHGVYFYSPISINYRTPC
modifications: C-terminal cysteine (of the added PC) linked to maleimide-NODAGA chelating ^64Cu
notes: Modified E01 (ADX_5417_E01 with N leader and C-terminal PC); also called ^64Cu-E01 anti-PD-L1 Adnectin
B9: ATI-1421E04 (designed binder)
chain: MGVSDVPRDLEVVAATPTSLLISWSYNGPIEYRITYGETGGNSPVQEFTVPDQQATISGLKPGVDYTITVYALEEAHYSRQSISINYRTEIDKPSQHHHHHH
notes: 10Fn3 Adnectin; also called AT1-1421E04
B10: ATI-1420D05 (designed binder)
chain: MGVSDVPRDLEVVAATPTSLLISWTAYYSTIKYRITYGETGGNSPVQEFTVGPKHHATISGLKPGVDYTITVYAYNTKPGYHAHQISINYRTEIDKPSQHHHHHH
notes: 10Fn3 Adnectin
B11: ATI-1420B09 (designed binder)
chain: MGVSDVPRDLEVVAATPTSLLISWHKFSSLMSYRITYGETGGNSPVQEFTVGSVNATISGLKPGVDYTITVYAIHNVGFISINYRTEIDKPSQHHHHHH
notes: 10Fn3 Adnectin
B12: ADX_5322_A02 (Cys-Capped) (designed binder)
chain: B7 chain
modifications: Cys-Capped (so in the source); capping group not stated
B13: cold (unlabeled) A02 Adnectin (designed binder)
chain: EVVAATPTSLLISWSYDGPIDRYYRITYGETGGNSPVQEFTVPPDQKTATISGLKPGVDYTITVYAVRLEEAHYNREFPISINYRT
B14: ^64Cu-A02-NODAGA (designed binder)
chain: GVSDVPRDLEVVAATPTSLLISWSYDGPIDRYYRITYGETGGNSPVQEFTVPPDQKTATISGLKPGVDYTITVYAVRLEEAHYNREFPISINYRTPC
modifications: C-terminal cysteine (of the added PC) linked to maleimide-NODAGA chelating ^64Cu
B15: ^18F-A02 Adnectin ([^18F]-A02-4PEG-DBCO-FPPEGA) (designed binder)
chain: B14 chain
modifications: C-terminal cysteine linked to Maleamide-DBCO-FFP(18F) (maleimide-PEG4-DBCO clicked with [^18F]-FPPEGA)

Where only a bound is given, the exact number is not on record here.

T3 sequence (Q9NZQ7 19-290): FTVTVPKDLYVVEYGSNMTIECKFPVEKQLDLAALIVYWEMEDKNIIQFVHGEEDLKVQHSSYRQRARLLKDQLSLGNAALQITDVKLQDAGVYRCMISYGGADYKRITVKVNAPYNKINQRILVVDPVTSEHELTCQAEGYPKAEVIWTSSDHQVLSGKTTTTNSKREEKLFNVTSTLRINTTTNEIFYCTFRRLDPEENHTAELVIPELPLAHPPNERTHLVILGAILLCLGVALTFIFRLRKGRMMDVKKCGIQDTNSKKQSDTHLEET

The target in the first test is T1, cyno PD-L1 (cyno (cynomolgus monkey), UniProt G7PSE7 19-239).
T1 construct: also called cynomolgus PD-L1
T1 sequence (G7PSE7 entry or part of it): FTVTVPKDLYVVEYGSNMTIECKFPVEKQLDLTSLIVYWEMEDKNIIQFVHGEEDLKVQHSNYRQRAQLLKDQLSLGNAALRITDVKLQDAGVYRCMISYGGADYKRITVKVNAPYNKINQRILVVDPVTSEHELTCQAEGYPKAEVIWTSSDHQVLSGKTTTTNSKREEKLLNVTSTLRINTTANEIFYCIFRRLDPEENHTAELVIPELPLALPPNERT
Description: SPR (Biacore), cyno PD-L1. (In general: Surface plasmon resonance follows binding to a sensor surface in real time, without labels.)
As usually defined, the Kd is a measure of binding affinity in units of concentration. The low end stands for a tighter complex, the high end for a looser complex. B1 had a Kd of 0.038 nM.
On the same count and under the same terms, in the case of B2 it was 0.8 nM; in that of B3, 0.06 nM; in that of B4, 0.11 nM.
Same read-out and setting: the same measure for B5: 0.14 nM.

The target of the next test is T2, human PD-L1 (Programmed Death Ligand-1), protein used in Biacore and ELISA (human, UniProt Q9NZQ7 19-239).
T2 construct: also called hPD-L1; CD274
T2 sequence (Q9NZQ7 19-239 limits assumed): as the sequence (G7PSE7 entry or part of it) above, with T33A, S34A, N62S, Q68R, R82Q, L173F, A185T, I192T, L215H counted along it
Description: SPR (Biacore), human PD-L1.
As a reminder, the koff is the rate constant with which the complex falls apart. The low end stands for a long-lived complex, the high end for a short-lived complex. By kon is commonly meant the rate constant with which the complex forms. On to B1, for which the Kd was 0.028 nM, the koff came to 6.9e-05 s⁻¹ and the kon is 2.5e+06 M⁻¹ s⁻¹.
For B6, in that order: 0.013 nM, 0.00026 s⁻¹ and 2e+07 M⁻¹ s⁻¹.
For B7, in that order: 0.228 nM, 0.00057 s⁻¹ and 2.5e+06 M⁻¹ s⁻¹.
For B2, in that order: 0.71 nM, 0.00033 s⁻¹ and 460000 M⁻¹ s⁻¹.
B3 displayed a Kd of 0.032 nM, a koff of 6.7e-05 s⁻¹ and a kon of 2.1e+06 M⁻¹ s⁻¹.
For B4, in that order: 0.16 nM, 0.00012 s⁻¹ and 750000 M⁻¹ s⁻¹.
As for B5, binding was put at a Kd of 0.21 nM, the koff was 7.7e-05 s⁻¹ and the kon is 360000 M⁻¹ s⁻¹.

Another test has as its target T3, human PD-L1 expressed on cells (hPD-L1-positive L2987 human lung carcinoma cells); L2987 xenograft and human … (human, UniProt Q9NZQ7 19-290).
T3 construct: whole, on cells; also called hPD-L1(+) L2987; PD-L1 positive cells L2987
Briefly: radiotracer binding to cells on ice, gamma counting. On the procedure: After the incubation period, cell samples were centrifuged at 200×g and the supernatant was discarded. Cell pellets were resuspended in 1 mL PBS+0.5% BSA and the wash procedure repeated for a total of 3 washes. Following the final wash, cells were again centrifuged at 200×g and the supernatant was discarded. The radioactivity of the remaining cell pellets was then measured by gamma counter.
For the molecule B8, the “fold higher cell associated radioactivity against hPD-L1-negative HT-29 cells” value came out at 44.6 fold.

A further test concerns the target T2, human PD-L1 (Programmed Death …). Briefly: method not stated (Table 1, binding properties of anti-PD-L1 Adnectins).
For B9, the dissociation constant (Kd) came out at 5.6 nM.
Same read-out and setting: in the case of B10 it was 9.5 nM.
Still for that read-out and setting: in the case of B11 it was 2.5 nM.

For the next test the target is unchanged. Description: summary sentence on the binding data (Biacore); limit tied to A02 by Table 2.
Molecule B7 had a Kd of less than 1 nM.

The target is the same in a further test. Briefly: ELISA, inhibition of binding of human CD80 (B7-1) to human PD-L1. (In general: In an ELISA, binding on a coated surface is turned into a signal by an enzyme label.)
As a reminder, the EC50 is the concentration at which the effect is half-maximal. Low values mean a more potent agent, high ones a less potent agent. For B1, the midpoint of the response, the EC50, lay at 0.028 nM.
For B2, the concentration giving a half-maximal response (EC50) amounted to 0.21 nM.
Same read-out and setting: in the case of B4 it was 0.056 nM; in that of B5, 0.041 nM.

A further test shares this target. Description: summary sentence on the binding data (Biacore); limit tied to E01 by Table 2.
In turn, B6 showed a Kd of less than 0.1 nM.

A further test deals with T3, human PD-L1 expressed on cells …. Briefly: cell binding to human PD-L1 positive L2987 cells; Cys-capped form; Cys-capped form.
B12 returned an EC50 of 0.43 nM.

For the next test the target is unchanged. Briefly: cell-based or functional assay.
As to B13, the “PET uptake of ^64Cu-A02 in hPD-L1(+) L2987 relative to hPD-L1(-) HT-29 xenografts when co-injected with 3 mg/kg unlabeled A02 Adnectin” value came out at 1.04 fold.
Regarding B14, the “PET radiotracer uptake in hPD-L1(+) L2987 xenografts relative to hPD-L1(-) HT-29 xenografts in mice (final 10 minutes of the 2 h time-activity curve)” value turned out to be 3.05 fold.
Turning to B15, the “maximum radiotracer uptake ratio in hPD-L1(+) L2987 xenografts vs. hPD-L1(-) HT-29 xenografts (PET, mice)” value is 3.53 ratio.
